Columns and labels:
Fbxl8 [1] = target: Fbxl8 (UniProt Q8CIG9); assay: anti-HA co-IP, blot for cyclin D3; conditions: reference: wild type Flag-cyclin D3; sites T283
Fbxl8 [2] = target: Fbxl8 (UniProt Q8CIG9); assay: co-immunoprecipitation; conditions: reference: wild type cyclin D3; sites T283

| binding against the reference (Fbxl8 [1]) | binding against the reference (Fbxl8 [2]) | Substance |
| --- | --- | --- |
| weaker |  | cyclin D3 (from UniProt P30282) Flag-cyclin D3 T283A |
|  | lost | cyclin D3 (from UniProt P30282) T283A |

Reference: publication PMC7808939
